Patent publication US20190241674A1 (MAB DISCOVERY, published 2019)

How the values were obtained:
FcγRIIIa receptor, V158 = FcγRIIIa receptor, V158 (human, UniProt P08637 17-254); test: cell-based or functional assay
HER2 on SK-BR-3 cells = target: T1, HER2 on SK-BR-3 cells (human, UniProt P04626 23-1255); test: cell binding to SK-BR-3, high content imaging (Example 4)
T1 construct: whole, on cells

[1] = target: T2, Recombinant Human ErbB2/HER2 Fc Chimera; R&D Systems; Cat. No. 1129-ER (human, UniProt P04626 23-652); test: HER2 biochemical ELISA, coated HER2 Fc chimera (Example 3)
T2 construct: Bought reagent; also called human Her2; HER2-HIS-tag; not shown: not described

Chain of FcγRIIIa receptor, V158 (P08637 17-254 F176V): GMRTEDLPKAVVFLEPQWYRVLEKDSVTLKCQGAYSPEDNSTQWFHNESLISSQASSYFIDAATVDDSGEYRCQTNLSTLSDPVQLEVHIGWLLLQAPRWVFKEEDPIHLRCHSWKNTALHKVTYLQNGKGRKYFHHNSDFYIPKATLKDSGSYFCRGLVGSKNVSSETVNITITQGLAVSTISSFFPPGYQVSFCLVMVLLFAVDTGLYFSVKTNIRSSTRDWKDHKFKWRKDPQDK

B1: MABD B100 (antibody)
heavy: not shown
light: DIVMTQTPASVSEPVGGTVTIKCQASQGISTALAWYQQKPGQRPKLLIYSASTLASGVSSRFKGSGSGTQFTLTISDLECADAATYYCQCTAAGSVSVGAFGGGTEVVVNRTVAAPSVFIFPPSDEQLKSGTASVVCLLNNFYPREAKVQWKVDNALQSGNSQESVTEQDSKDSTYSLSSTLTLSKADYEKHKVYACEVTHQGLSSPVTKSFNRGEC
- EC50 of FcR signaling (FcγRIIIa receptor, V158): 0.052 µg/mL
- stimulation of FcR signaling (FcγRIIIa receptor, V158): 132 fold
- EC50 (HER2 on SK-BR-3 cells): 0.078 µg/mL
- EC50 [1]: 0.0052 µg/mL
